Paper PMC8126848 (Proceedings of the National Academy of Sciences of the …, 2021)

Molecular target: soluble ectodomain of ICAM-1 (intercellular adhesion molecule-1), domains D1 to D5 (UniProt P05362 28-480)
Assay: cryo-EM structure

Sequence of soluble ectodomain of ICAM-1 (intercellular adhesion molecule-1), domains D1 to D5 (P05362 28-480): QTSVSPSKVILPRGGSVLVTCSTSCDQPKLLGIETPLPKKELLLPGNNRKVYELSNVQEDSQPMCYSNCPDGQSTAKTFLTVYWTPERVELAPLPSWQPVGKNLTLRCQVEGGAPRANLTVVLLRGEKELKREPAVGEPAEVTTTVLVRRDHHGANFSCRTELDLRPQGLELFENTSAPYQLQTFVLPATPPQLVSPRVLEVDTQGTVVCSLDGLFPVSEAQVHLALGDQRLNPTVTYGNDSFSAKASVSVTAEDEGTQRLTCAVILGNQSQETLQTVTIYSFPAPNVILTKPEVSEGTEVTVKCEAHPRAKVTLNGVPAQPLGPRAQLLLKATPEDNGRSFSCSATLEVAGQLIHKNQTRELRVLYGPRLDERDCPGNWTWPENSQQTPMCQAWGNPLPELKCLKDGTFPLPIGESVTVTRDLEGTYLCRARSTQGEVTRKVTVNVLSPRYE

B1: rhinovirus 14 capsid protein VP2 (natural protein, rhinovirus 14 (strain 1059), UniProt P03303 70-331, looked up)
chain: SPNVEACGYSDRVQQITLGNSTITTQEAANAVVCYAEWPEYLPDVDASDVNKTSKPDTSVCRFYTLDSKTWTTGSKGWCWKLPDALKDMGVFGQNMFFHSLGRSGYTVHVQCNATKFHSGCLLVVVIPEHQLASHEGGNVSVKYTFTHPGERGIDLSSANEVGGPVKDVIYNMNGTLLGNLLIFPHQFINLRTNNTATIVIPYINSVPIDSMTRHNNVSLMVIPIAPLTVPTGATPSLPITVTIAPMCTEFSGIRSKSIVPQ
binding result: binds
